Reference: patent US20150285818A1, “Switchable Reporter Enzymes for Homogenous Antibody Detection” (TECHNISCHE UNIVERSITEIT EINDHOVEN, priority 2012, published 2015)
Residue numbers refer to the chain shown, from its start. In names and notes the source's numbering stands.

B1: Abs2-2: Abs3-2 with the large epitope changed for the shorter WEKIRLR epitope; SEQ ID NO: 20 (protein)
chain: MSIQHFRVALIPFFAAFCLPVFAHHHHHHLVPRGSHPETLVKVKDAEDQLGARVGYIELDLNSGKILESFRPEERFPMMSTFKVLLCGAVLSRIDAGQEQLGRRIHYSQNDLVDYSPVTEKHLTDGMTVRELCSAAITMSDNTAANLLLTTIGGPKELTAFLHNMGDHVTRLDRWEPELNEAIPNDERDTTMPVAMATTLRKLLTGELLTLASRQQLIDWMEADKVAGPLLRSALPAGWFIADKSGAGERGSRGIIAALGPDGKPSRIVVIYTTGSQATMDERNRQIAEIGASLIKHWTSGGWEKIRLRGGSGGSGGSGGSGGSGGSGAEAAAKEAAAKEAAAKEAAAKEAAAKEAAAKAGSGGSGGSGGPQGILGQGSGGSGGSGGSGAEAAAKEAAAKEAAAKEAAAKEAAAKEAAAKAGSGGSGGSGGSGGSGGSGGWEKIRLRGGSGGSHGAGVMTGAKFTQIQFGMTRQQVLDIAGAENCETGGSFGDSIHCRGHAAGDYYAYATFGFTSAAADAKVDSKSQEKLLAPSAPTLTLAKFNQVTVGMTRAQVLATVGQGSCTTWSEYYPAYPSTAGVTLSLSCFDVDGYSSTGAYRGSAHLWFTDGVLQGKRQWDLVGEFGGWSHPQFEK
B2: Abs-1: TEM1 β-lactamase fused via linker with WEKIRLR epitopes to weak-binding RRGHYY peptide inhibitor; SEQ ID NO: 12 (protein)
chain: MSIQHFRVALIPFFAAFCLPVFAHHHHHHLVPRGSHPETLVKVKDAEDQLGARVGYIELDLNSGKILESFRPEERFPMMSTFKVLLCGAVLSRIDAGQEQLGRRIHYSQNDLVEYSPVTEKHLTDGMTVRELCSAAITMSDNTAANLLLTTIGGPKELTAFLHNMGDHVTRLDRWEPELNEAIPNDERDTTMPVAMATTLRKLLTGELLTLASRQQLIDWMEADKVAGPLLRSALPAGWFIADKSGAGERGSRGIIAALGPDGKPSRIVVIYTTGSQATMDERNRQIAEIGASLIKHWTSGGWEKIRLRGGSGGSGGSGGSGGSGGSGAEAAAKEAAAKEAAAKEAAAKEAAAKEAAAKAGSGGSGGSGGPQGILGQGSGGSGGSGGSGAEAAAKEAAAKEAAAKEAAAKEAAAKEAAAKAGSGGSGGSGGSGGSGGSGGWEKIRLRGGSGGSHGRRGHYYGEFGGWSHPQFEK
B3: Abs-2: TEM1 β-lactamase fused via linker with WEKIRLR epitopes to BLIP protein as inhibitor domain; SEQ ID NO: 13 (protein)
chain: B1 chain with D114E, A597F
B4: Abs3-1: Abs-3 variant with E104D in β-lactamase and E31A in BLIP; SEQ ID NO: 22 (protein)
chain: MSIQHFRVALIPFFAAFCLPVFAHHHHHHLVPRGSHPETLVKVKDAEDQLGARVGYIELDLNSGKILESFRPEERFPMMSTFKVLLCGAVLSRIDAGQEQLGRRIHYSQNDLVDYSPVTEKHLTDGMTVRELCSAAITMSDNTAANLLLTTIGGPKELTAFLHNMGDHVTRLDRWEPELNEAIPNDERDTTMPVAMATTLRKLLTGELLTLASRQQLIDWMEADKVAGPLLRSALPAGWFIADKSGAGERGSRGIIAALGPDGKPSRIVVIYTTGSQATMDERNRQIAEIGASLIKHWTSGGELDRWEKIRLRPGGSGGSGGSGGSGGSGGSGAEAAAKEAAAKEAAAKEAAAKEAAAKEAAAKAGSGGSGGSGGSGGSGGSGAEAAAKEAAAKEAAAKEAAAKEAAAKEAAAKAGSGGSGGSGGSGGSGGSGGELDRWEKIRLRPGGSHGAGVMTGAKFTQIQFGMTRQQVLDIAGAENCATGGSFGDSIHCRGHAAGDYYAYATFGFTSAAADAKVDSKSQEKLLAPSAPTLTLAKFNQVTVGMTRAQVLATVGQGSCTTWSEYYPAYPSTAGVTLSLSCFDVDGYSSTGFYRGSAHLWFTDGVLQGKRQWDLVGEFGGWSHPQFEK
B5: Abs3-2: Abs-3 variant with E104D in β-lactamase and F142A in BLIP; SEQ ID NO: 37 (protein)
chain: B4 chain with A482E, F593A

How the values were obtained:
anti-HIV1-p17 antibody [1] = assay: Reporter enzyme activity assay with nitrocefin and anti-HIV1-p17 antibody titration; conditions: 50 μM nitrocefin; for Kd: read-out: dissociation constant (Kd) of reporter enzyme for target antibody, fit of nitrocefin hydrolysis rate vs anti-HIV1-p17 concentration, 1:1 binding model, pH 7.0; for increase in enzymatic activity upon addition of 200 nM anti-HIV1-p17: 0.3 nM sensor, 200 nM antibody
IgG mix = assay: Specificity of reporter enzyme activity towards nonspecific IgG mix; conditions: up to highest IgG concentration tested (2 μM)
anti-HIV1-p17 antibody [2] = assay: Reporter enzyme activity assay with fluorescent substrate CCF2-FA in buffer and serum

Molecule | increase in enzyme activity upon addition of target antibody (anti-HIV1-p17 antibody [1]; saturating anti-HIV1-p17) [fold] | Kd (anti-HIV1-p17 antibody [1]) [nM] | increase in enzymatic activity upon addition of 200 nM anti-HIV1-p17 (anti-HIV1-p17 antibody [1]) | enzymatic (background) activity in the absence of antibody (anti-HIV1-p17 antibody [1]) | increase in enzyme activity with random mix of IgG proteins (IgG mix) | increase in enzyme activity upon addition of 50 nM target antibody in serum (anti-HIV1-p17 antibody [2]; 5 nM sensor, 10% FBS, 10 μM CCF2-FA) [fold] | dynamic range with CCF2-FA as substrate (anti-HIV1-p17 antibody [2]; 1 μM CCF2-FA in buffer, 0.1 nM sensor) [fold] | enzymatic activity in absence of target antibody, 1 μM CCF2-FA compared to 50 μM nitrocefin (anti-HIV1-p17 antibody [2]; buffer)
B1 | 1.8 | 108 |  |  |  |  |  | 
B2 |  |  | no increase in enzymatic activity |  |  |  |  | 
B3 |  |  | no increase in activity | strongly inhibited |  |  |  | 
B4 |  | 0.17 ± 0.03 |  | low background activity | No significant increase | 10 | 9 | significantly lower
B5 |  | 0.19 ± 0.02 |  | low background activity | No significant increase |  |  | 
